In patent publication EP4545559A2 (INSTITUTO BUTANTAN, dated 2025):
Read-outs that look alike come from different tables or passages of the source.

Columns and labels:
[1] = molecular target: T1, RBD WT (original Wuhan) (SARS-CoV-2, UniProt P0DTC2 319-541)
[2] = molecular target: T1, RBD WT (original Wuhan); remark: listed apart in the source
[3] = molecular target: T1, RBD WT (original Wuhan); remark: listed apart in the source
[4] = molecular target: T1, RBD WT (original Wuhan); remark: listed apart in the source
[5] = molecular target: T1, RBD WT (original Wuhan); remark: listed apart in the source

B1: Monoclonal antibody S.9.4.F4 (antibody, V domains shown)
VH: QVQLVESGGGVVQPGRSLRLSCAASGFTFSHYGMHWVRQAPGKGLEWVAVILYDGSNEYYADSVKGRFTISRDNSKNTLYLQMNSLRAEDTAVYYCAKGAGTYCSGGNCYVAYFDYWGQGTLVTVSS
VL: AIRMTQSPSSLSASVGDRVTITCQASQDISNYLNWYQQKPGKAPKLLIYDASNLETGVPSRFSGSGSGTDFTVTISSLQPEDFATYYCQQYDNLPLTFGGGTKVEIK
notes: also called mAb S.9.4.F4
B1 gave a Kd [1] of ~0.0336 nM.

B2: Monoclonal antibody S.9.2.D7 (antibody, V domains shown)
VH: EVQLLESGGGLIQTGGSLRLSCAASGFTFSSYAMSWVRQAPGKGLEWVSVISDSGGSTYYADSVKGRLTISRDNSKNTLYVQMNSLRAEDTAVYYCAKGKGGIAAAGPAFLFDYWGQGTLVTVSS
VL: DIQMTQSPSLLSASAGDRVTISCRMSQGISSYLAWYQQKPGKAPELLISSASTLQSGVPSRFSGSGSGTDFTLTISYLQSEDFATYYCQQYYSFPTTFGGGTKVEIK
notes: also called mAb S.9.2.D7
In the case of B2, the Kd [2] is reported as 4.85 nM.

B3: Monoclonal antibody S.9.4.C7 (antibody, V domains shown)
VH: QVQLVESGGGVVQPGRSLRLSCAASGFTFRNYAMHWVRQAPGKGLEWVTVISYDGSDKYYADSVKGRFTISRDNSKNTLYLQMNSLRAEDTAVYYCAKDPVGGYCSGGRCYFHSHYFDYWGQGTLVTVSS
VL: NFMLTQPHSVSESPGKTVTISCTRSSGSIASYYVQWYQQRPGSSPTTVISEDNQRPSGVPDRFSGSIDSSSNSASLTISGLKTEDEADYYCQSYDSNNHVIFGGGTKLTVL
notes: also called mAb S.9.4.C7
B3 gave a Kd [3] of 0.0407 nM.

B4: Monoclonal antibody S.9.2.B8 (antibody, V domains shown)
VH: EVQLVETGGGLIQPGGSLRLSCAASGLIVSSNYMTWVRQAPGKGLEWVSVLYSGGTTYYADSVKGRVTISRDNSKNTLYLQVNSLTVADTAVYYCARDLADRGGMDVWGQGTTVTVSS
VL: SYELTQPPSVSVAPGQTARITCGGNNIGSQSVHWYQQKPGQAPVLVVYDDSDRPSGIPERFSGSKSGNMATLTISRVEAGDEADYYCQVWDSSSDHVVFGGGTKLTVL
notes: also called mAb S.9.2.B8
For B4, the Kd [4] was 1.99 nM.

B5: Monoclonal antibody S.9.1.C9 (antibody, V domains shown)
VH: QVQLVESGGGVVQPGRSLGLSCAVSGFTFSNYGMDWVRQAPGKGLEWVAVTSYDGSNKYYADSVKGRFTISRDNSKNTLYLQMNSLRTEDTAVYYCAKHGGGPYCGGGTCYLAYFDYWGQGTLVTVSS
VL: DIQMTQSPSSLSASVRDRVTITCQASQDISKFLNWYQQKPGKAPKLLIYDASNLETGVPSRFSGSGSGTDFTFTISSLQPEDIATYYCQQYDNLPITFGQGTRLEIKR
notes: also called mAb S.9.1.C9
Binder B5 has a Kd [5] of 0.214 nM.
